Source: publication PMC10622425

Biological target: M2 protein of human Influenza A virus A/WSN/33 (H1N1), wild type (Influenza A virus A/WSN/33 (H1N1))
Assay: co-IP

B1: human DHHC20 fused at its C-terminus to a myc-tag (enzyme)
chain: TLWRCCQRVVGWVPVLFITFVVVWSYYAYVVELCVFTIFGNEENGKTVVYLVAFHLFFVMFVWSYWMTIFTSPASPSKEFYLSNSEKERYEKEFSQERQQEILRRAARALPIYTTSASKTIRYCEKCQLIKPDRAHHCSACDSCILKMDHHCPWVNNCVGFSNYKFFLLFLLYSLLYCLFVAATVLEYFIKFWTNELTDTRAKFHVLFLFFVSAMFFISVLSLFSYHCWLVGKNRTTIESFRAPTFSYGPDGNGFSLGCSKNWRQVFGDEKKYWLLPIFSSLGDGCSFPTRLVGM
Q: Which percent of total DHHC20-myc co-precipitated does the source give for B1 here?
A: 1%
